Like-named read-outs stand apart in the source and are kept apart here.
Legend:
Test in all cases: enzyme inhibition kinetics (Dixon plot)
[1] = biological target: α-chymotrypsin from bovine pancreas (bovine)
[2] = biological target: α-chymotrypsin from bovine pancreas (bovine); remark: listed apart in the source
[3] = biological target: elastase from bovine pancreas (bovine, UniProt Q28153 27-266); conditions: both partners purified
elastase from bovine pancreas, sequence (Q28153 27-266): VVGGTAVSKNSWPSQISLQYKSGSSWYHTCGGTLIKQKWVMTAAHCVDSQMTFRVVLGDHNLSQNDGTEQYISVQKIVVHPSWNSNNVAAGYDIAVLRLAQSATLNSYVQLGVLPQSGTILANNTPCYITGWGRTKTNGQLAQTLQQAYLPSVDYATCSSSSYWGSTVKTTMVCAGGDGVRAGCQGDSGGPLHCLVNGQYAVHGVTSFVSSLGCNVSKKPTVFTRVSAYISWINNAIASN

## Recombinant Sc-KU-4 (BPTI-Kunitz family serine protease inhibitor of Steinernema carpocapsae) (from UniProt E2IPQ6) (natural protein)
[1]
  Ki: 2.6 nM
[2]
  Ki: 1.8 nM

B1: Recombinant Sc-KU-4 (BPTI-Kunitz family serine protease inhibitor of Steinernema carpocapsae) (natural protein)
chain: FPLFEFNCSALKDSGSGSNVTRQFYFDPDWNTCLAFNYNGTGGNTNRFETKEDCELLCVPAGSTCKGPSKTVVQPLKEAFRCDDSVCPSTHKCLMGMVPVCCDKENQEAFNQAVADTCPDGTKADGIFDLYFRAVYAHSCEDLICDENHKCVQVNKHFAKCCSKE
notes: not shown: His6, C-terminal, kept
[3]
  Ki: 2.6 nM

Source: article PMC3787073 (PLoS ONE, 2013)
